Reference: patent publication US20190002527A1 (CHILDREN S MEDICAL CENTER, published 2019)

B1: HA-linked CD98 that lacks high homology domain (ΔHH) (other)
chain: MELQPPEASIAVVSIPRQLPGSHSEAGVQGLSAGDDSETGSDCVTQAGLQLLASSDPPALASKNAEVTVETGFHHVSQADIEFLTSIDPTASASGSAGITGTMSQDTEVDMKEVELNELEPEKQPMNAASGAAMSLAGAEKNGLVKIKVAEDEAEAAAACRELPAQKWWHTGALYRIGDLQAFQGHGAGNLAGLKGRLDYLSSLKVKGLVLGPIHKNQKDDVAQTDLLQIDPNFGSKEDFDSLLQSAKKKSIRVILDLTPNYRGENSWFSTQVDTVATKVKDALEFWLQAGVDGFQVRDIENLKDASSFLAEWQNITKGFSEDRLLIAGTNSSDLQQILSLLESNKDLLLTSSYLSDSGSTGEHTKSLVTQYLNATGNRWCSWSLSQARLLTSFLPAQLLRLYQLMLFTLPGTPVFSYGDEIGLDAAALPGQPMEAPVMLWDESSFPDIPGAVSANMTVKGQSEDPGSLLSLFRRLSDQRSKERSLLHGDFHAFSAGPGLFSYIRHWDQNERFLVVLNFGDVGLSAGLQASDLPASASLPAKADLLLSTQPGREEGSPLELERLKLEPHEGLLLRFPYAA
notes: Built from 'deletion of a 50 amino acid (160-210aa) high homology domain'; also called CD98 lacking the high homology domain; not shown: HA tag
B2: myc-linked TRPV4 lacking all ankyrin repeat domains (ΔAR1-3) (other)
chain: MADSSEGPRAGPGEVAELPGDESGTPGGEAFPLSSLANLFEGEDGSLSPSPADASRPAGPGDGRPNLRMKFQGAFRKGVPNPIDLLESTLYESSVVPGPKKAPMDSLFDYGTYRHHSSDNKRWRKKIIEKQPQSPKAPAPQPPPILKVFNRPILFDIVSRGSTADLDGLLPFLLTHKKRLTDEEFREPSTGKTCLPKALLNLSNGRNDTIPVLLDIAERTGNMREFINSPFRDIYYQARGRFFQPKDEGGYFYMRRQDSRGNTVLHALVAIADNTRENTKFVTKMYDLLLLKCARLFPDSNLEAVLNNTRHLSRKFKDWAYGPVYSSLYDLSSLDTCGEEASVLEILVYNSKIENRHEMLAVEPINELLRDKWRKFGAVSFYINVVSYLCAMVIFTLTAYYQPLEGTPPYPYRTTVDYLRLAGEVITLFTGVLFFFTNIKDLFMKKCPGVNSLFIDGSFQLLYFIYSVLVIVSAALYLAGIEAYLAVMVFALVLGWMNALYFTRGLKLTGTYSIMIQKILFKDLFRFLLVYLLFMIGYASALVSLLNPCANMKVCNEDQTNCTVPTYPSCRDSETFSTFLLDLFKLTIGMGDLEMLSSTKYPVVFIILLVTYIILTFVLLLNMLIALMGETVGQVSKESKHIWKLQWATTILDIERSFPVFLRKAFRSGEMVTVGKSSDGTPDRRWCFRVDEVNWSHWNQNLGIINEDPGKNETYQYYGFSHTVGRLRRDRWSSVVPRVVELNKNSNPDEVVVPLDSMGNPRCDGHQQGYPRKWRTDDAPL
notes: also called TRPV4 lacking all three ankyrin repeat domains; not shown: myc tag

Columns and labels:
β1-integrin = biological target: T1, β1-integrin (human, UniProt P05556 21-798); assay: co-IP from transfected HEK293T cells, IP anti-β1-integrin, blot anti-HA
T1 construct: Endogenous β1-integrin in lysates of human HUVE or HEK293T cells; No signal peptide limits are stated; also called B1-integrin; ITGB1
From the text: (§1) FIG. 2A depicts a schematic representation of TRPV4. […] The right panel gives the Western blotting for the expression of each transgene in total cell lysates of respective transfectants.

[1] = biological target: T2, TRPV4 (transient receptor potential vanilloid 4) (human, UniProt Q9HBA0 1-871); assay: co-IP from transfected HEK293T cells, IP anti-TRPV4, blot anti-HA
T2 construct: Endogenous TRPV4 in lysates of human HUVE or HEK293T cells, co-immunoprecipitation; also called TRPV4 membrane ion channel
From the text: as §1

[2] = biological target: T3, CD98 (cluster of differentiation 98) (human, UniProt Q01650 1-507); assay: co-IP from transfected HEK293T cells, IP anti-CD98, blot anti-myc
T3 construct: Endogenous CD98 in lysates of human HUVE or HEK293T cells; also called LAT1; transmembrane amino acid transporter CD98
From the text: as §1

T1 sequence (P05556 21-798 limits assumed): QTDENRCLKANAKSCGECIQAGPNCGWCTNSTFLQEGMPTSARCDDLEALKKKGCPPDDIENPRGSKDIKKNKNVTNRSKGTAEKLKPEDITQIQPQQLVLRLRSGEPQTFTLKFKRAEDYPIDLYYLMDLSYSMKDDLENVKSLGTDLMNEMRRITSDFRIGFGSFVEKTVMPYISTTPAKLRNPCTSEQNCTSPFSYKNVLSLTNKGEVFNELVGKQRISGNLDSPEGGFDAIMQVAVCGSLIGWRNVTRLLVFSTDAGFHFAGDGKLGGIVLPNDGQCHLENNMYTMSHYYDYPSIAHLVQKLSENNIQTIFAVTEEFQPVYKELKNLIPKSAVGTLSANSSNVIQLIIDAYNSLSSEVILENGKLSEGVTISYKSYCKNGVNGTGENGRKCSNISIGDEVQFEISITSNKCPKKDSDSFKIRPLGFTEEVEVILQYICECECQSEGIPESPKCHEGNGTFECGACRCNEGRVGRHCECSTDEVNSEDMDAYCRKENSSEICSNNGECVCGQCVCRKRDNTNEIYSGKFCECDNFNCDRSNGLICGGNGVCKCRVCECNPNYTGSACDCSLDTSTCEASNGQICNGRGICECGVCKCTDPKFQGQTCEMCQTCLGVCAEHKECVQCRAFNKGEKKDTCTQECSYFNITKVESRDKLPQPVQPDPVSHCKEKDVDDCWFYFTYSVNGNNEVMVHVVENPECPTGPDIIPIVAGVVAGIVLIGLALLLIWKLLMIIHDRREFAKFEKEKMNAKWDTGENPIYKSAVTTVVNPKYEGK
T3 sequence (Q01650 whole entry): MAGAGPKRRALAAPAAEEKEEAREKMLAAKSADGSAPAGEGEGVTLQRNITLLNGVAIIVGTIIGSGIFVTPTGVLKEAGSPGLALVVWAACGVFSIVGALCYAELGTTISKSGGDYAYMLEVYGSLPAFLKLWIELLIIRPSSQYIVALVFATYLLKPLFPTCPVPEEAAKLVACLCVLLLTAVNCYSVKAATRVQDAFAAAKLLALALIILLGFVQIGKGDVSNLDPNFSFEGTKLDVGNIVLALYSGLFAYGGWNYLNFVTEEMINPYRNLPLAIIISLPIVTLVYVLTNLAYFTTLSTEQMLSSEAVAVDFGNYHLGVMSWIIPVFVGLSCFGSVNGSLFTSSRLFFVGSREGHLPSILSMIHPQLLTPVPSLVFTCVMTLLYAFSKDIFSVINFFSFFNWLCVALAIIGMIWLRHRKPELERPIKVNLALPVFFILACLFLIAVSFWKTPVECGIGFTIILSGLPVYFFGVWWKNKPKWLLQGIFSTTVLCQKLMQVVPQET

Binder | binding result (β1-integrin) | binding result [1] | binding result [2]
B1 | no binding | no binding | –
B2 | – | – | no binding
